Assay results: US20260055179A1 (ALENTIS THERAPEUTICS, published 2026)

Target: T1, human Claudin-1 (CLDN1) (human, UniProt O95832 1-211)
T1 construct: whole, on cells; Transmembrane tight-junction protein, endogenously expressed on primary human cholangiocytes in the flow cytometry assay
T1 sequence (looked up): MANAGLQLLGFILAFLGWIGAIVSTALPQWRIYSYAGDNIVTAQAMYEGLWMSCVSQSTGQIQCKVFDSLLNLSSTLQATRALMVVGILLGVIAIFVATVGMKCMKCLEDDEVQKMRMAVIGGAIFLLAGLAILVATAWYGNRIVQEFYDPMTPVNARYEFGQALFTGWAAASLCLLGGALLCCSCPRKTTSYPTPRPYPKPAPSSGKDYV
Experiment: flow cytometry on primary human cholangiocytes (HBEpiC) after 10 ng/ml TNFalpha for 24 h; anti-human AF647 secondary antibody
Description: Primary human cholangiocytes were purchased from Innoprot, Bizkaia, Spain (Human Biliary Epithelial Cells, HBEpiC, ref. P10654; Batch #21614) and cultured on poly-1-lysine-coated surfaces according to manufacturer's instructions. Following stimulation, with 10 ng/ml TNFα for 24 hours, cells were harvested for assessment of CLDN1 expression by flow cytometry using anti-CLDN1 mAb H3L3 (Colpitts et al. 2018) and an anti-human AF647-conjugated secondary antibody.

B1: anti-CLDN1 mAb H3L3 (antibody, human IgG1, kappa, V domains shown)
VH: QVQLVESGGGVVQPGRSLRLSCLGSGFSFSSYGMNWVRQAPGKGLEWVASISPSGSYFYYADSVKGRFTISRDNSKNTLYLQMTSLRAEDTAIYYCARLPGFNPPFDHWGQGTLVTVSS
VL: DIQMTQSPSSLSASVGDRVTITCKASQNVGGNVDWYQWKPGKAPKLLIYGASNRYTGVPDRFRGSGSGTDFTLTISSLQPEDVATYYCLQYKNNPWTFGGGTKVEIKR
notes: Humanized anti-Claudin-1 monoclonal antibody; also called CLDN1 H3L3; CLDN1-specific H3L3 mAb
binding result: binds
